Reference: the supplement of paper PMC11316812
± gives the standard deviation of the averaged measurements.

Assays:
hTERT-HMEC = test: percentage of EdU-negative (G0-arrested) nuclei per well, 72 h; higher = more G0 arrest; settings: reference: sequence is the full UniProt precursor, the tested protein was the secreted form or ectodomain
MCF7 = test: as above; settings: reference: sequence is the full UniProt precursor, the tested protein was the secreted form or ectodomain
[1] = protein concentration 0.0191429 µM
[2] = protein concentration 0.191429 µM
[3] = protein concentration 0.03125 µM
[4] = protein concentration 0.3125 µM
[5] = protein concentration 0.01925 µM
[6] = protein concentration 0.1925 µM
[7] = protein concentration 0.0157525 µM
[8] = protein concentration 0.157525 µM
[9] = protein concentration 0.0225 µM
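Further: secreted proteins added to cultured cells, EdU pulse at the end, nuclei found by Hoechst imaging, EdU status from nuclear versus surrounding ring intensity ratio, PBS as neutral control.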

Sequence: MRPRLWLLLAAQLTVLHGNSVLQQTPAYIKVQTNKMVMLSCEAKISLSNMRIYWLRQRQAPSSDSHHEFLALWDSAKGTIHGEEVEQEKIAVFRDASRFILNLTSVKPEDSGIYFCMIVGSPELTFGKGTQLSVVDFLPTTAQPTKKSTLKKRVCRLPRPETQKGPLCSPITLGLLVAGVLVLLVSLGVAIHLCCRRRRARLRFMKQFYK
- percentage of EdU-negative (hTERT-HMEC; [1]): 5.15 ± 0.17%
- percentage of EdU-negative (hTERT-HMEC; [2]): 4.67 ± 0.05%
- percentage of EdU-negative (MCF7; [1]): 27.8 ± 0.56%
- percentage of EdU-negative (MCF7; [2]): 28.7 ± 0.39%

Sequence: MRPTLLWSLLLLLGVFAAAAAAPPDPLSQLPAPQHPKIRLYNAEQVLSWEPVALSNSTRPVVYQVQFKYTDSKWFTADIMSIGVNCTQITATECDFTAASPSAGFPMDFNVTLRLRAELGALHSAWVTMPWFQHYRNVTVGPPENIEVTPGEGSLIIRFSSPFDIADTSTAFFCYYVHYWEKGGIQQVKGPFRSNSISLDNLKPSRVYCLQVQAQLLWNKSNIFRVGHLSNISCYETMADASTELQQVILISVGTFSLLSVLAGACFFLVLKYRGLIKYWFHTPPSIPLQIEEYLKDPTQPILEALDKDSSPKDDVWDSVSIISFPEKEQEDVLQTL
- percentage of EdU-negative (hTERT-HMEC; [3]): 5.59 ± 1.2%
- percentage of EdU-negative (hTERT-HMEC; [4]): 6.09 ± 0.44%
- percentage of EdU-negative (MCF7; [3]): 27.1 ± 3%
- percentage of EdU-negative (MCF7; [4]): 24.6 ± 0.62%

Sequence: MRPVSVWQWSPWGLLLCLLCSSCLGSPSPSTGPEKKAGSQGLRFRLAGFPRKPYEGRVEIQRAGEWGTICDDDFTLQAAHILCRELGFTEATGWTHSAKYGPGTGRIWLDNLSCSGTEQSVTECASRGWGNSDCTHDEDAGVICKDQRLPGFSDSNVIEVEHHLQVEEVRIRPAVGWGRRPLPVTEGLVEVRLPDGWSQVCDKGWSAHNSHVVCGMLGFPSEKRVNAAFYRLLAQRQQHSFGLHGVACVGTEAHLSLCSLEFYRANDTARCPGGGPAVVSCVPGPVYAASSGQKKQQQSKPQGEARVRLKGGAHPGEGRVEVLKASTWGTVCDRKWDLHAASVVCRELGFGSAREALSGARMGQGMGAIHLSEVRCSGQELSLWKCPHKNITAEDCSHSQDAGVRCNLPYTGAETRIRLSGGRSQHEGRVEVQIGGPGPLRWGLICGDDWGTLEAMVACRQLGLGYANHGLQETWYWDSGNITEVVMSGVRCTGTELSLDQCAHHGTHITCKRTGTRFTAGVICSETASDLLLHSALVQETAYIEDRPLHMLYCAAEENCLASSARSANWPYGHRRLLRFSSQIHNLGRADFRPKAGRHSWVWHECHGHYHSMDIFTHYDILTPNGTKVAEGHKASFCLEDTECQEDVSKRYECANFGEQGITVGCWDLYRHDIDCQWIDITDVKPGNYILQVVINPNFEVAESDFTNNAMKCNCKYDGHRIWVHNCHIGDAFSEEANRRFERYPGQTSNQII
- percentage of EdU-negative (hTERT-HMEC; [5]): 4.9 ± 0.65%
- percentage of EdU-negative (hTERT-HMEC; [6]): 39.2 ± 1.2%
- percentage of EdU-negative (MCF7; [5]): 25.3 ± 1.3%
- percentage of EdU-negative (MCF7; [6]): 31.5 ± 2.3%

Sequence: MRQVCCSALPPPPLEKGRCSSYSDSSSSSSERSSSSSSSSSESGSSSRSSSNNSSISRPAAPPEPRPQQQPQPRSPAARRAAARSRAAAAGGMRRDPAPGFSMLLFGVSLACYSPSLKSVQDQAYKAPVVVEGKVQGLVPAGGSSSNSTREPPASGRVALVKVLDKWPLRSGGLQREQVISVGSCVPLERNQRYIFFLEPTEQPLVFKTAFAPLDTNGKNLKKEVGKILCTDCATRPKLKKMKSQTGQVGEKQSLKCEAAAGNPQPSYRWFKDGKELNRSRDIRIKYGNGRKNSRLQFNKVKVEDAGEYVCEAENILGKDTVRGRLYVNSVSTTLSSWSGHARKCNETAKSYCVNGGVCYYIEGINQLSCKCPNGFFGQRCLEKLPLRLYMPDPKQKAEELYQKRVLTITGICVALLVVGIVCVVAYCKTKKQRKQMHNHLRQNMCPAHQNRSLANGPSHPRLDPEEIQMADYISKNVPATDHVIRRETETTFSGSHSCSPSHHCSTATPTSSHRHESHTWSLERSESLTSDSQSGIMLSSVGTSKCNSPACVEARARRAAAYNLEERRRATAPPYHDSVDSLRDSPHSERYVSALTTPARLSPVDFHYSLATQVPTFEITSPNSAHAVSLPPAAPISYRLAEQQPLLRHPAPPGPGPGPGPGPGPGADMQRSYDSYYYPAAGPGPRRGTCALGGSLGSLPASPFRIPEDDEYETTQECAPPPPPRPRARGASRRTSAGPRRWRRSRLNGLAAQRARAARDSLSLSSGSGGGSASASDDDADDADGALAAESTPFLGLRGAHDALRSDSPPLCPAADSRTYYSLDSHSTRASSRHSRGPPPRAKQDSAPL
- percentage of EdU-negative (hTERT-HMEC; [7]): 4.61 ± 0.33%
- percentage of EdU-negative (hTERT-HMEC; [8]): 5.33 ± 1%
- percentage of EdU-negative (MCF7; [7]): 24.9 ± 0.53%
- percentage of EdU-negative (MCF7; [8]): 26.5 ± 0.38%

Sequence: MRRASRDYTKYLRGSEEMGGGPGAPHEGPLHAPPPPAPHQPPAASRSMFVALLGLGLGQVVCSVALFFYFRAQMDPNRISEDGTHCIYRILRLHENADFQDTTLESQDTKLIPDSCRRIKQAFQGAVQKELQHIVGSQHIRAEKAMVDGSWLDLAKRSKLEAQPFAHLTINATDIPSGSHKVSLSSWYHDRGWAKISNMTFSNGKLIVNQDGFYYLYANICFRHHETSGDLATEYLQLMVYVTKTSIKIPSSHTLMKGGSTKYWSGNSEFHFYSINVGGFFKLRSGEEISIEVSNPSLLDPDQDATYFGAFKVRDID
- percentage of EdU-negative (hTERT-HMEC; [9]): 4.57 ± 0.17%
- percentage of EdU-negative (hTERT-HMEC; protein concentration 0.225 µM): 5.25 ± 0.66%
- percentage of EdU-negative (MCF7; [9]): 28.6 ± 1.4%
- percentage of EdU-negative (MCF7; protein concentration 0.225 µM): 25.6 ± 1.6%

Sequence: MRRLLIPLALWLGAVGVGVAELTEAQRRGLQVALEEFHKHPPVQWAFQETSVESAVDTPFPAGIFVRLEFKLQQTSCRKRDWKKPECKVRPNGRKRKCLACIKLGSEDKVLGRLVHCPIETQVLREAEEHQETQCLRVQRAGEDPHSFYFPGQFAFSKALPRS
- percentage of EdU-negative (hTERT-HMEC; [9]): 4.71 ± 0.87%
- percentage of EdU-negative (hTERT-HMEC; protein concentration 0.225 µM): 5.88 ± 0.56%
- percentage of EdU-negative (MCF7; [9]): 27.7 ± 0.92%
- percentage of EdU-negative (MCF7; protein concentration 0.225 µM): 26.6 ± 2.6%
